The target in assay [1] is Neisseria meningitidis quinol-dependent nitric oxide reductase, wild type (Neisseria meningitidis). Put plainly: native gel or EMSA; blue native PAGE of peak 1 and peak 2 fractions after concentration in 100 kDa cutoff devices; 5 and 10 ug loaded.
The target of assay [2] is NmqNOR-BRIL (Neisseria meningitidis qNOR with apocytochrome b562 fused to its C-terminus) (Neisseria meningitidis). Put plainly: cryo-EM structure; NmqNOR-BRIL peak 1 at 4 mg/ml, no additional buffer components; C2 symmetry, 3.06 A.

Consider “Neisseria meningitidis quinol-dependent nitric oxide reductase, wild type (enzyme)”, for which the stoichiometry N in assay [1] worked out at 2.
Substance “NmqNOR-BRIL (Neisseria meningitidis qNOR with apocytochrome b562 fused to its C-terminus) (enzyme)” displayed a stoichiometry N in assay [2] of 2.

One may read the stoichiometry N as a count of units in the complex or per binding partner.

Values taken from publication PMC7201271.
